From publication PMC12990809

Legend:
Assay in all cases: pulldown
[1] = target: T1, hnrnpr (Xenopus tropicalis) (UniProt A0A8J0QQ94); conditions: 20 nM protein, 1.5 uM RNA pool; 20 mM HEPES pH 7.8, 70 mM KCl, 10 mM NaCl, 10% glycerol, 2 mM DTT, 0.1 ug/uL BSA; 30 min, 4 C (protocol of this paper; not …); cited from earlier work
T1 sequence: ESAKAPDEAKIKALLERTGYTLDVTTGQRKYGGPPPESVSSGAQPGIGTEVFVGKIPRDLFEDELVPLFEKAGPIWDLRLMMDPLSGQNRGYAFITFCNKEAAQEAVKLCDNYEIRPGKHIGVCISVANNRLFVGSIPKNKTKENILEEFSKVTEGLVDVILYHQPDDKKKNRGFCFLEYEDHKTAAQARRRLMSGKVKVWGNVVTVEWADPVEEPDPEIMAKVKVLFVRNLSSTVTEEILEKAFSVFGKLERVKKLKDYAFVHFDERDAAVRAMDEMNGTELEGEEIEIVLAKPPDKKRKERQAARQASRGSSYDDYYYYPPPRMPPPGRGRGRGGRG

HNRNPA1 (Homo sapiens) = HNRNPA1 (Homo sapiens) (UniProt P09651); conditions: 20 nM protein, 1.5 uM RNA pool; 20 mM HEPES pH 7.8, 70 mM KCl, 10 mM NaCl, 10% glycerol, 2 mM DTT, 0.1 ug/uL BSA; 30 min, 4 C (protocol of this paper; not …); cited from earlier work
[2] = target: T2, PK27672.1 (Cannabis sativa) (UniProt A0A7J6HI09); conditions: 20 nM protein, 1.5 uM RNA pool; 20 mM HEPES pH 7.8, 70 mM KCl, 10 mM NaCl, 10% glycerol, 2 mM DTT, 0.1 ug/uL BSA; 30 min, 4 C
T2 sequence: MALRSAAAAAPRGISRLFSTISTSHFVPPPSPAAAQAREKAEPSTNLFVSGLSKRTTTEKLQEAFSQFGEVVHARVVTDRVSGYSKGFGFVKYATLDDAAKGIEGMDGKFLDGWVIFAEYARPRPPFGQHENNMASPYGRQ

[3] = target: T3, PK03611.1 N266D (Cannabis sativa) (UniProt A0A7J6FG33); conditions: 20 nM protein, 1.5 uM RNA pool; 20 mM HEPES pH 7.8, 70 mM KCl, 10 mM NaCl, 10% glycerol, 2 mM DTT, 0.1 ug/uL BSA; 30 min, 4 C
T3 sequence: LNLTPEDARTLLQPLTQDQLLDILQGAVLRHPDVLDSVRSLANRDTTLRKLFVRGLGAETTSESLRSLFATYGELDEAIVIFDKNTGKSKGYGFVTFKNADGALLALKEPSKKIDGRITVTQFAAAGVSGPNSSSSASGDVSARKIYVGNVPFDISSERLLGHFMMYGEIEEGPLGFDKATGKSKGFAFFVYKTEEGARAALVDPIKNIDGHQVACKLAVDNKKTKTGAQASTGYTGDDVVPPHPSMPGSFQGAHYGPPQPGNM

G3BP2 (Homo sapiens) = target: T4, G3BP2 (Homo sapiens) (UniProt Q9UN86); conditions: 20 nM protein, 1.5 uM RNA pool; 20 mM HEPES pH 7.8, 70 mM KCl, 10 mM NaCl, 10% glycerol, 2 mM DTT, 0.1 ug/uL BSA; 30 min, 4 C (protocol of this paper; not …); cited from earlier work
T4 sequence: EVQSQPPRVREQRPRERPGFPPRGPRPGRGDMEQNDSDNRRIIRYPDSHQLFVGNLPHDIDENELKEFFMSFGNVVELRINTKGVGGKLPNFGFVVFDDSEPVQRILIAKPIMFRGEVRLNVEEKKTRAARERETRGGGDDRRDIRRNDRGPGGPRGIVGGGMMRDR

[4] = target: T5, spo5 (Schizosaccharomyces pombe) (UniProt Q2L4W6); conditions: 20 nM protein, 1.5 uM RNA pool; 20 mM HEPES pH 7.8, 70 mM KCl, 10 mM NaCl, 10% glycerol, 2 mM DTT, 0.1 ug/uL BSA; 30 min, 4 C
T5 sequence: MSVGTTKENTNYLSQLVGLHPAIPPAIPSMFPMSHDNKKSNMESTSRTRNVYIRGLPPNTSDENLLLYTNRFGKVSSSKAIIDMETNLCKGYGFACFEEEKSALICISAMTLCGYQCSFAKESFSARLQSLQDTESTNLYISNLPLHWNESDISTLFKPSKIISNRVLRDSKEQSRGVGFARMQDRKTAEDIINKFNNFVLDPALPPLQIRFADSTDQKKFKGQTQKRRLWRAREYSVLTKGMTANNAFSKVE

hnrnpa0l (Danio rerio) = hnrnpa0l (Danio rerio) (UniProt A0ACM8Q088); conditions: 20 nM protein, 1.5 uM RNA pool; 20 mM HEPES pH 7.8, 70 mM KCl, 10 mM NaCl, 10% glycerol, 2 mM DTT, 0.1 ug/uL BSA; 30 min, 4 C
[5] = target: T6, CBG04067 ins404_V (Caenorhabditis briggsae) (UniProt Q6E3D5); conditions: 20 nM protein, 1.5 uM RNA pool; 20 mM HEPES pH 7.8, 70 mM KCl, 10 mM NaCl, 10% glycerol, 2 mM DTT, 0.1 ug/uL BSA; 30 min, 4 C
T6 sequence: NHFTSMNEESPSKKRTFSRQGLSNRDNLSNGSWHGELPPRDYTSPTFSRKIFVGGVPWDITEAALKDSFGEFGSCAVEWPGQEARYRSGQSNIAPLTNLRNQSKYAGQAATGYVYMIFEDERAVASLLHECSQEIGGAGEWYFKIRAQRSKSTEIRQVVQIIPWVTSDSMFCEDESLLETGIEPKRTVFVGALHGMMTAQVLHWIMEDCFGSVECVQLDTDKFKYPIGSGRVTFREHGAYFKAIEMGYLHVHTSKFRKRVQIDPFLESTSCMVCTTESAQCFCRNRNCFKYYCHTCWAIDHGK

[6] = target: T7, rbm24a (Tetraodon nigroviridis) (UniProt H3CUV7); conditions: 20 nM protein, 1.5 uM RNA pool; 20 mM HEPES pH 7.8, 70 mM KCl, 10 mM NaCl, 10% glycerol, 2 mM DTT, 0.1 ug/uL BSA; 30 min, 4 C (protocol of this paper; not …); cited from earlier work
T7 sequence: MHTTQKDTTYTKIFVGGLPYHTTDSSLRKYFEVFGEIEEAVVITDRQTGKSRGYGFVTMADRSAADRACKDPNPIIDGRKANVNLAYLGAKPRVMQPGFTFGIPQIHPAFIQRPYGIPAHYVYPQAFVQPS

Sequence of HNRNPA1 (Homo sapiens) (P09651 1-226): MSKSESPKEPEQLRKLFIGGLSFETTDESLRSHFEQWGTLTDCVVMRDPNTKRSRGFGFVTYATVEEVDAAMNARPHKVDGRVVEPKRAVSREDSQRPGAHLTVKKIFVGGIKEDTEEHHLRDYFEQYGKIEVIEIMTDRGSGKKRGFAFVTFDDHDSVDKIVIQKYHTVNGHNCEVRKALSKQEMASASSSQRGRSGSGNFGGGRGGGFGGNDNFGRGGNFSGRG
Sequence of hnrnpa0l (Danio rerio) (A0ACM8Q088 entry or part of it): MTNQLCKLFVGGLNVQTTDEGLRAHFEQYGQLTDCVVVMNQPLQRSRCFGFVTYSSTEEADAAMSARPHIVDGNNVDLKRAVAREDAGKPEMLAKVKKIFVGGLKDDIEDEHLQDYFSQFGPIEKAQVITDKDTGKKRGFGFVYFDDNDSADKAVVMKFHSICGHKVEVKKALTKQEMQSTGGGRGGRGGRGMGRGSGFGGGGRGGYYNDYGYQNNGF

In the case of AAAUU [RNAcompete motif RNCMPT00289], the binding signal (z-score (mean of top ten 7-mers)) [1] is listed as 8.84.

In the case of UAGGGA [RNAcompete motif RNCMPT00022], the binding signal (z-score (mean of top ten 7-mers)) (HNRNPA1 (Homo sapiens)) is listed as 10.

For AGUACA [RNAcompete motif RNCMPT00342], the binding signal (z-score (mean of top ten 7-mers)) [2] was 9.79.

Work on UUAUGUG [RNAcompete motif RNCMPT00326] yielded a binding signal (z-score (mean of top ten 7-mers)) [3] of 8.16.

In the case of AGGAUNA [RNAcompete motif RNCMPT00021], the binding signal (z-score (mean of top ten 7-mers)) (G3BP2 (Homo sapiens)) is listed as 8.75.

Substance AUAUUA [RNAcompete motif RNCMPT00311] has a binding signal (z-score (mean of top ten 7-mers)) [4] of 7.81.

With AUAGGA [RNAcompete motif RNCMPT00340] the binding signal (z-score (mean of top ten 7-mers)) (hnrnpa0l (Danio rerio)) was 10.9.

For GUUUUA [RNAcompete motif RNCMPT00341], the binding signal (z-score (mean of top ten 7-mers)) [5] was 9.44.

In the case of UGUGUG [RNAcompete motif RNCMPT00285], the binding signal (z-score (mean of top ten 7-mers)) [6] is listed as 10.2.
